# Numbered stars: 1 amine (or outer) side, 2 acyl side, 3 side chain; on linkers, the order of the positions; unused ones are H or OH. Bridge positions count the residues as written; N and C are the ends. Side chains are listed from the residue outwards. Ends that are not written are not given here. * marks the point of attachment. C20 diacid = O=C(O)CCCCCCCCCCCCCCCCCCC(=O)*; γGlu = O=C(O)[C@H](CCC(=O)[*:2])N[*:1]
# T1: human calcitonin receptor (human, UniProt P30988 25-474)
# T1 sequence (looked up): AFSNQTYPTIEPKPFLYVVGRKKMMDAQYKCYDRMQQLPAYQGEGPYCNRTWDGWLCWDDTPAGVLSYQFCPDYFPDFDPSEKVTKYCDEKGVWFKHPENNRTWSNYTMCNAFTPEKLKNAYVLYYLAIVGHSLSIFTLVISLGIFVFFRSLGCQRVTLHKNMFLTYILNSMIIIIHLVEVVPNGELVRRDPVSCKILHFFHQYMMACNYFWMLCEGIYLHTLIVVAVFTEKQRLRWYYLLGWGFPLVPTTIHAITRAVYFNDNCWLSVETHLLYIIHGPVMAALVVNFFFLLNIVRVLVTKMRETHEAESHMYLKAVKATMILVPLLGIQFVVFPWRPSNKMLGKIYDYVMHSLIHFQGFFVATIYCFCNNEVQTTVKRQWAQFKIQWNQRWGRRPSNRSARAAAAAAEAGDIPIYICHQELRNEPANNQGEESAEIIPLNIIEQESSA
# T2: human amylin receptor (amylin 3(a) receptor: human calcitonin receptor with RAMP-3) (human, UniProt P30988 25-474; O60896 24-148, limits assumed)
# T2 construct: whole, on cells; Whole cells in the luciferase assay (Assay II a); also called hAmylin-R; hAmylinR
# T2 sequence (looked up) 1: T1 sequence (looked up)
# T2 sequence (looked up) 2: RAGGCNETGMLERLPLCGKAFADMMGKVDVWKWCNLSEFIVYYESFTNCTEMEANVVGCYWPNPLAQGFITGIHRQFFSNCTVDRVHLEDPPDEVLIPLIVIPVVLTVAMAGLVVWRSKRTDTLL
# B1: N^ε1-[(4S)-4-carboxy-4-[[(4S)-4-carboxy-4-(19-carboxynonadecanoylamino)butanoyl]amino]butanoyl]-[Glu14,Arg17,Pro21,Pro27,Pro34,Glu35,Pro37]-h-amylin (peptide)
# peptide: K([γGlu-γGlu-C20 diacid])CNTATCATQRLAEFLRHSSPNFGAIPSSTNVGPETP-NH2
# modifications: disulfide 2-7; N-terminus assumed
# SMILES: CC[C@H](C)[C@H](NC(=O)[C@H](C)NC(=O)CNC(=O)[C@H](Cc1ccccc1)NC(=O)[C@H](CC(N)=O)NC(=O)[C@@H]1CCCN1C(=O)[C@H](CO)NC(=O)[C@H](CO)NC(=O)[C@H](Cc1c[nH]cn1)NC(=O)[C@H](CCCNC(=N)N)NC(=O)[C@H](CC(C)C)NC(=O)[C@H](Cc1ccccc1)NC(=O)[C@H](CCC(=O)O)NC(=O)[C@H](C)NC(=O)[C@H](CC(C)C)NC(=O)[C@H](CCCNC(=N)N)NC(=O)[C@H](CCC(N)=O)NC(=O)[C@@H](NC(=O)[C@H](C)NC(=O)[C@@H]1CSSC[C@H](NC(=O)[C@@H](N)CCCCNC(=O)CC[C@H](NC(=O)CC[C@H](NC(=O)CCCCCCCCCCCCCCCCCCC(=O)O)C(=O)O)C(=O)O)C(=O)N[C@@H](CC(N)=O)C(=O)N[C@@H]([C@@H](C)O)C(=O)N[C@@H](C)C(=O)N[C@@H]([C@@H](C)O)C(=O)N1)[C@@H](C)O)C(=O)N1CCC[C@H]1C(=O)N[C@@H](CO)C(=O)N[C@@H](CO)C(=O)N[C@H](C(=O)N[C@@H](CC(N)=O)C(=O)N[C@H](C(=O)NCC(=O)N1CCC[C@H]1C(=O)N[C@@H](CCC(=O)O)C(=O)N[C@H](C(=O)N1CCC[C@H]1C(N)=O)[C@@H](C)O)C(C)C)[C@@H](C)O
# B2: N^ε1-[(4S)-4-carboxy-4-[[(4S)-4-carboxy-4-(19-carboxynonadecanoylamino)butanoyl]amino]butanoyl]-[Glu14,Arg17,Pro21,Pro27,Pro37]-h-amylin (peptide)
# peptide: K([γGlu-γGlu-C20 diacid])CNTATCATQRLAEFLRHSSPNFGAIPSSTNVGSNTP-NH2
# modifications: disulfide 2-7; N-terminus assumed
# SMILES: CC[C@H](C)[C@H](NC(=O)[C@H](C)NC(=O)CNC(=O)[C@H](Cc1ccccc1)NC(=O)[C@H](CC(N)=O)NC(=O)[C@@H]1CCCN1C(=O)[C@H](CO)NC(=O)[C@H](CO)NC(=O)[C@H](Cc1c[nH]cn1)NC(=O)[C@H](CCCNC(=N)N)NC(=O)[C@H](CC(C)C)NC(=O)[C@H](Cc1ccccc1)NC(=O)[C@H](CCC(=O)O)NC(=O)[C@H](C)NC(=O)[C@H](CC(C)C)NC(=O)[C@H](CCCNC(=N)N)NC(=O)[C@H](CCC(N)=O)NC(=O)[C@@H](NC(=O)[C@H](C)NC(=O)[C@@H]1CSSC[C@H](NC(=O)[C@@H](N)CCCCNC(=O)CC[C@H](NC(=O)CC[C@H](NC(=O)CCCCCCCCCCCCCCCCCCC(=O)O)C(=O)O)C(=O)O)C(=O)N[C@@H](CC(N)=O)C(=O)N[C@@H]([C@@H](C)O)C(=O)N[C@@H](C)C(=O)N[C@@H]([C@@H](C)O)C(=O)N1)[C@@H](C)O)C(=O)N1CCC[C@H]1C(=O)N[C@@H](CO)C(=O)N[C@@H](CO)C(=O)N[C@H](C(=O)N[C@@H](CC(N)=O)C(=O)N[C@H](C(=O)NCC(=O)N[C@@H](CO)C(=O)N[C@@H](CC(N)=O)C(=O)N[C@H](C(=O)N1CCC[C@H]1C(N)=O)[C@@H](C)O)C(C)C)[C@@H](C)O
# notes: also called compound 13
# B3: N^ε1-[(4S)--4-carboxy-4-(19-carboxynonadecanoylamino)butanoyl]-[Glu14,Arg17,Pro21,Pro27,Pro37]-h-amylin (peptide)
# peptide: K([γGlu-C20 diacid])CNTATCATQRLAEFLRHSSPNFGAIPSSTNVGSNTP-NH2
# modifications: disulfide 2-7; N-terminus assumed
# SMILES: CC[C@H](C)[C@H](NC(=O)[C@H](C)NC(=O)CNC(=O)[C@H](Cc1ccccc1)NC(=O)[C@H](CC(N)=O)NC(=O)[C@@H]1CCCN1C(=O)[C@H](CO)NC(=O)[C@H](CO)NC(=O)[C@H](Cc1c[nH]cn1)NC(=O)[C@H](CCCNC(=N)N)NC(=O)[C@H](CC(C)C)NC(=O)[C@H](Cc1ccccc1)NC(=O)[C@H](CCC(=O)O)NC(=O)[C@H](C)NC(=O)[C@H](CC(C)C)NC(=O)[C@H](CCCNC(=N)N)NC(=O)[C@H](CCC(N)=O)NC(=O)[C@@H](NC(=O)[C@H](C)NC(=O)[C@@H]1CSSC[C@H](NC(=O)[C@@H](N)CCCCNC(=O)CC[C@H](NC(=O)CCCCCCCCCCCCCCCCCCC(=O)O)C(=O)O)C(=O)N[C@@H](CC(N)=O)C(=O)N[C@@H]([C@@H](C)O)C(=O)N[C@@H](C)C(=O)N[C@@H]([C@@H](C)O)C(=O)N1)[C@@H](C)O)C(=O)N1CCC[C@H]1C(=O)N[C@@H](CO)C(=O)N[C@@H](CO)C(=O)N[C@H](C(=O)N[C@@H](CC(N)=O)C(=O)N[C@H](C(=O)NCC(=O)N[C@@H](CO)C(=O)N[C@@H](CC(N)=O)C(=O)N[C@H](C(=O)N1CCC[C@H]1C(N)=O)[C@@H](C)O)C(C)C)[C@@H](C)O
# notes: also called compound 12
# B4: N^-1-[(4S)-4-carboxy-4-(19-carboxynonadecanoylamino)butanoyl]-Gly[Arg1,Ala14,Arg17,Pro21,Pro27,Pro34]-h-amylin (peptide)
# peptide: {C20 diacid-γGlu}-GRCNTATCATQRLAAFLRHSSPNFGAIPSSTNVGPNTY-NH2
# modifications: disulfide 3-8 (inferred)
# B5: N^-1-[(4S)-4-carboxy-4-(19-carboxynonadecanoylamino)butanoyl]-Gly[Arg1,Ala14,Arg17,Pro21,Pro27,His34]-h-amylin (peptide)
# peptide: {C20 diacid-γGlu}-GRCNTATCATQRLAAFLRHSSPNFGAIPSSTNVGHNTY-NH2
# modifications: disulfide 3-8 (inferred)
# B6: N^-1-[(4S)-4-carboxy-4-(19-carboxynonadecanoylamino)butanoyl]-Gly[Arg1,His14,Arg17,Pro21,Pro27,Pro34]-h-amylin (peptide)
# peptide: {C20 diacid-γGlu}-GRCNTATCATQRLAHFLRHSSPNFGAIPSSTNVGPNTY-NH2
# modifications: disulfide 3-8 (inferred)
# Target: T1, human calcitonin receptor
# Test: cell-based or functional assay
Binder,Ratio hCT/hAmylin funct. [ratio],hCTR funct. EC50 (pM)
B1,0.8,102
B2,2.2,–
B3,1.8,–
B4,2.1,–
B5,4.9,–
B6,2.9,–

# Target: T2, human amylin receptor (amylin 3(a) …)
# Test: SPA competition binding on membranes of BHK cells with human calcitonin receptor + RAMP-3; displacement of 125I-rat amylin (Assay V)
# Method in brief: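 SPA beads + BHK amylin 3(a)/CRE-luc membranes, 35 ng/μL final; buffer 50 mM Hepes pH 7.4, 1 mM CaCl2, 5 mM MgCl₂, 0.1% OA, 0.02% Tween20. 120 min, 25° C, shaken; scintillation count. IC₅₀ by one-site binding competition fit, taken as receptor affinity.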
row,Binder,IC50 [nM]
1,B1,0.533
2,B2,0.264
3,B3,0.142
4,B4,0.114
5,B5,0.426
6,B6,0.217
